Laboratory results taken from patent US20240025993A1 (Novartis, published 2024).

Target: T1, human CD19 (human, UniProt P15391 20-556)
T1 construct: whole, on cells; also called huCD19; hCD19
T1 sequence (looked up): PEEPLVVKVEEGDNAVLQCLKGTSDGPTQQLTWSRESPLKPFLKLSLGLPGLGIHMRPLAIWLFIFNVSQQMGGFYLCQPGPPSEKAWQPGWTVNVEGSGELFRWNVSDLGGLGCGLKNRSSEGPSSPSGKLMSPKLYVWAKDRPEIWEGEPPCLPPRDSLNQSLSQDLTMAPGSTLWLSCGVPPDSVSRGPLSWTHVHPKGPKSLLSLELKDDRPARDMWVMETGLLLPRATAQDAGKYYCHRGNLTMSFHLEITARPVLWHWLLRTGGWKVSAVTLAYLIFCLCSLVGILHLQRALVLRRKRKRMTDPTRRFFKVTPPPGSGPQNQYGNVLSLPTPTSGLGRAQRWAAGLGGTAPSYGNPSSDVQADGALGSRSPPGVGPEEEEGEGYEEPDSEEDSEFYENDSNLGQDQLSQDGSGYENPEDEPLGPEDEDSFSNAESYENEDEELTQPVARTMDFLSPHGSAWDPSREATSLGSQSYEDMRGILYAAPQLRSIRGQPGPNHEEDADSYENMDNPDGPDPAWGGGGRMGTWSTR
Test: summary sentence of the examples; no method at this place

- binding result: binds
B1: NEG218 (antibody, V domains shown)
VH: EVQLVQSGAEVKKPGESLKISCKASGYSFTNYWMNWVRQMPGKGLEWMGMIHPSDSEIRLNQKFQGQVTLSVDKSIGTAYMQWSSLKASDTAMYYCSRWYYLSSPMDYWGQGTTVTVSS
VL: EIVMTQSPATLSVSPGERATLSCRASQDVGTAVAWYQQKPGQAPRLLIYWASTRHTGIPARFSGSGSGTEFTLTISSLQSEDFAVYFCQQYSSYPYTFGQGTKLEIK
notes: also called CD19 antibody NEG218; anti-CD19 antibody NEG218
